Test results: article PMC2794166

Target: T1, mPOT1a_N (mouse, UniProt Q91WC1 1-300)
T1 sequence: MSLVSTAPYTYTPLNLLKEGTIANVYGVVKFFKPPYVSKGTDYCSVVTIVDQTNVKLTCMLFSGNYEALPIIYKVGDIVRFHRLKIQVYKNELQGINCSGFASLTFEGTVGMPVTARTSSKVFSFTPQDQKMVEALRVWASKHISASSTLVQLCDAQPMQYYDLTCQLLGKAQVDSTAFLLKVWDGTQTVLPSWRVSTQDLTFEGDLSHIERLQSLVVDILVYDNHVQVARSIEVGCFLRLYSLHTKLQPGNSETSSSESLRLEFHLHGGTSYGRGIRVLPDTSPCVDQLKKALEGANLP
Experiment: EMSA

B1: (TTAGGG)2 (ssDNA)
DNA: TTAGGGTTAGGG
- binding result: no binding
